Test results as given in PMC3799859.

Target: FLAG-tagged Sig-1R, Q99720
Assay: co-immunoprecipitation (IP: V5, Western blot for FLAG, quantified)
Conditions: chain shown with the change; n = 4; parent: est. 100; read off a plot

Chain of FLAG-tagged Sig-1R, Q99720 (Q99720 whole entry): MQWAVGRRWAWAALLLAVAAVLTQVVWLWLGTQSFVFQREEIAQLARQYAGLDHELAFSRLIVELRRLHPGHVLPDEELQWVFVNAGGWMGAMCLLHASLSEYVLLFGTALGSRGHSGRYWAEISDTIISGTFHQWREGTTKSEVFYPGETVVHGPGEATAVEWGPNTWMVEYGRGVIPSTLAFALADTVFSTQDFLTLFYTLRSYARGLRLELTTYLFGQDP

percent of parent: 190%
B1: ΔIRE1-V5/His (ER lumenal domain of human IRE1), O75460 D123P (protein)
chain: IFGSTSTVTLPETLLFVSTLDGSLHAVSKRTGSIKWTLKEDPVLQVPTHVEEPAFLPDPNDGSLYTLGSKNNEGLTKLPFTIPELVQASPCRSSDGILYMGKKQPIWYVIDLLTGEKQQTLSSAFADSLCPSTSLLYLGRTEYTITMYDTKTRELRWNATYFDYAASLPEDDVDYKMSHFVSNGDGLVVTVDSESGDVLWIQNYASPVVAFYVWQREGLRKVMHINVAVETLRYLTFMSGEVGRITKWKYPFPKETEAKSKLTPTLYVGKYSTSLYASPSMVHEGVAVVPRGSTLPLLEGPQTDGVTIGDKGECVITPSTDVKFDPGLKSKNKLNYLRNYWLLIGHHETPLSASTKMLERFPNNLPKHRENVIPADSEKKSFEEVINLVDQTSENAPTTVSRDVEEKPAHAPARPEAPVDSMLKD
